How the values were obtained:
HMGB-1 = target: T1, HMGB-1 (Homo sapiens, UniProt P09429); assay: Antibody HMG1 binding competition via BIAcore analysis
T1 sequence (P09429 1-215): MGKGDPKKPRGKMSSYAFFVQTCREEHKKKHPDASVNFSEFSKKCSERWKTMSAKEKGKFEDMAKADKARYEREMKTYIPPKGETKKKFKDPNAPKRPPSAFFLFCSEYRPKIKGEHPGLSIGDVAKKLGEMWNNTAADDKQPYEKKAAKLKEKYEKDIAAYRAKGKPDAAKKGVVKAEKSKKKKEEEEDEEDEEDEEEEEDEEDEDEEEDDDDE
Experimental: Antibody HMG1 Binding Competition via BIAcore Analysis: All experiments were performed on a BIAcore 3000 instrument (BIAcore, Inc., Piscataway, N.J.). The HMGB-1 protein was immobilized onto a CM5 sensor using a standard amine coupling chemistry protocol, as described in the BIAcore Handbook (BIAcore, Inc., Piscataway, N.J.). Briefly, the CM5 surface subject to the NHS/EDC activation. After activation a HMGB-1 was injected over the surface at a concentration of 100 nM or 200 nM (in 10 mM NaOAc, pH4) to a surface density of between 1100 and 1200 RU's. Following this, unreacted sites on the sensor chip surface were “capped” with an injection of 1M ethanolamine. For reference purposes, a blank flow cell was also prepared, utilizing this same procedure that was used to immobilize HMGB-1, but without any ligand.
MAbs G2, G4, G9, S6 and Synagis were prepared at 1 uM and 2 uM. All mAb solutions were prepared in HBS-EP buffer (BIAcore, Inc., Piscataway, N.J.). Each cycle started with a 100 μL injection of the first mAb, injected at 1 μM, followed by a second 100 μL injection of a 1:1 mixture of two, 2× concentration mAbs, such that the final concentration of each component mAb in the mixture is equivalent to the first injection. […]
Once the entire set had been collected, the maximum RU responses for each mAb after each injection cycle was recorded. […]

LPS-induced ALI = assay: LPS induced acute lung injury (ALI) mouse model; format: in vivo; details: percent protection, isotype control subtracted
Experimental: Induction of LPS-induced ALI: LPS (E. coli strain 01111:B4. Sigma, St. Louis, Mo.) was administered intranasally to isoflurane (Baxter Pharmaceuticals, Deerfield, Ill.) anesthetized adult BALB/c mice on day 1 at a dose of 5-10 ug per mouse in 50-100 μl. For determination of HMG1 levels animals were euthanized by CO2 asphyxiation at 4, 8, 24, 32 and 48 hours post LPS administration, and BronchoAlvcolar Lavarge (BAL) and other samples collected for protein analysis and histopathology. For treatment protocols 24 hours post LPS dosing, anti-HMGB1 antibodies, HMG1 A-box Fc fusion or controls were administered intraperitoneally (i.p.) at a dose of 10 mg/kg in 100 ul volumes. On day 3 (48 h post LPS dosing), animals were euthanized by CO2 asphyxiation and samples (BALs, blood, and lungs) collected for analysis.
BAL Sample Collection: lungs were flushed three times with ˜0.8 ml Phosphate buffered saline (PBS, pH 7.2, GIBCO, Rockville, Md.) using a syringe with a catheter tubing. BAL samples collected were centrifuged at 1,200 rpm for 10 min at 4 C, supernatant collected and stored at −80 C for protein (e.g. HMGB1) quantitation, and cells in pellet were resuspended and transferred to cytoslides, fixed, GIEMSA stained, and BAL cellularity determined visually with the aid of a microscope.

| Molecule | binding sites on HMGB1 by BIAcore competition (HMGB-1) | in vivo ALI (LPS-induced ALI) [%] |
| --- | --- | --- |
| G9: human anti-HMG1 antibody; VL/VH aa SEQ ID NO: 34/36 (antibody, listed as Homo sapiens, V domains shown) VH: EVQLLESGGGLVQPGGSLRLSCAASGFTFSSYDMFWVRQAPGKGLEWVSRISPSGGYTYYADSVKGRFTISRDNSKNTLYLQMNSLRAEDTAVYYCARLRYFDSRGYAFDIWGQGTMVTVSS VL: AQDIQMTQSPGTLSLSPGERATLSCRASQSVRSSYLAWYQQKPGQAPRLLIYGASTRATGIPDRFSGSGSGTDFTLTISRLEPEDFAVYYCQQYGTSRWTFGQGTKVEIK | bind to either the same site or sites that are highly related perhaps overlapping |  |
| E11: human anti-HMG1 antibody, recognizes HMG1 A-Box; VL/VH aa SEQ ID NO: 24/26 (antibody, listed as Homo sapiens, V domains shown) VH: EVQLLESGGGLVQPGGSLRLSCAASGFTFSRYQMNWVRQAPGKGLEWVSSISPSGGHTHYADSVKGRFTISRDNSKNTLYLQMNSLRAEDTAVYYCAKDGRQGKISTVDHWGQGTLVTVSS VL: AQDIQMTQSPGTLSLSPGERATLSCRASQSVRSNFLAWYQQKPGQAPRLLIYGASRRASGIPDRFSGSGFGADFTLSISRLEPEDFAVYYCQQYGSSPNTFGQGSRVEIK |  | 37 |

Source: patent US20080311122A1, “Antagonists of Hmgb1 and/or Rage and Methods of Use Thereof” (Medimmune, LLC, priority 2005, published 2008)
